Values of other authors in PMC6886688.

System: Tyr134

For “Cellular retinoic acid binding protein 2 (CRABP2) (Homo sapiens (inferred; not stated in the article))”, the pKa is listed as about 7.6.
